# Measured values from PMC3253920 (Biochimica et Biophysica Acta, 2011).
# Target: the molecule itself
# Test: crystal structure
protein,measurement,value
"native rat liver glycine N-methyltransferase (enzyme, UniProt P13255 2-293, looked up, acetylated N-terminal valine (Val1)) VDSVYRTRSLGVAAEGIPDQYADGEAARVWQLYIGDTRSRTAEYKAWLLGLLRQHGCHRVLDVACGTGVDSIMLVEEGFSVTSVDASDKMLKYALKERWNRRKEPAFDKWVIEEANWLTLDKDVPAGDGFDAVICLGNSFAHLPDSKGDQSEHRLALKNIASMVRPGGLLVIDHRNYDYILSTGCAPPGKNIYYKSDLTKDITTSVLTVNNKAHMVTLDYTVQVPGAGRDGAPGFSKFRLSYYPHCLASFTELVQEAFGGRCQHSVLGDFKPYRPGQAYVPCYFIHVLKKTG",stoichiometry N,4
